Experimental data reported in US7592168B2, “Cephalosporin C acylase mutant and method for preparing 7-ACA using same” (Sandoz AG, priority 2003, dated 2009).

What was measured:
[1] = Matsuda et al. 1987; cited from earlier work
[2] = Specific activity of CPC acylase to GL-7-ACA; assay type: biochemical; settings: purified enzyme
Procedure: J. Appl. Microbiol. Biotechnol. 23: 559-564, 1995). […] After the reaction, the mixture (200 μl) of 50 mM NaOH and 20% glacial acetic acid (1:2) was added thereto to stop the reaction. 200 μl of the supernatant recovered from the reaction mixture by centrifugation was mixed with 40 μl of 0.5% (w/v) PDAB (p-dimethylaminobenzaldehyde; Sigma, USA) dissolved in a methanol and the reaction mixture was incubated at 37° C. for 10 min. After the reaction, the absorbance of reaction mixture was measured at 415 nm and quantified by comparing with a calibration curve of standard material. […] Biochem. 72: 248-254, 1976) and representing it as an active unit corresponding to 1 mg of protein. The reactivity of CPC acylase mutant to CPC was determined by the following steps of adding the same amount of protein to a reaction mixture, performing an enzyme reaction for a fixed time, measuring the amount of 7-ACA produced in the reaction mixture, and representing it as a relative value. The end-product inhibition by 7-ACA was determined by adding a protein corresponding to the same active unit to a reaction mixture, performing an enzyme reaction for a fixed time; measuring the amount of 7-ACA produced in the reaction mixture, and representing it as a relative value.
Therefore, it has been known that the Pseudomonas sp.

[3] = Productivity of CPC acylase mutant, pET29 plasmids in E. coli BL21(DE3) with lactose; settings: pET29-S12, E. coli BL21(DE3), 2% lactose, 25° C., 72 hr
Procedure: Each of pET29-TnS5αβ and pET29-S12 plasmids was transformed into E. coli BL21(DE3) by electrophoration to prepare the recombinant E. coli containing pET29-TnS5αβ and pET29-S12 plasmid, respectively, and the productivity of sixfold CPC acylase mutant in each recombinant E. coli was measured The TnS5αβ and S12 CPC acylase mutant gene in these recombinant plasmids was transcribed by the action of T7 promoter which is under the control of LacI operator existed on pET29-a(+) vector.
The recombinant E. coli containing pET-TnS5αβ plasmid was inoculated in […] of a LB broth containing 20 μg/ml of kanamycin and cultivated at 30° C., 200 rpm for 16 hr with vigorous shaking. […] The activity of sixfold CPC acylase mutant to CPC was measured using said crude enzyme solution according to the same method as described in Example <1-1-2>.
Further, the productivity of CPC acylase by S12 mutant enzyme in the E. coli BL21(DE3) transformant containing pET29-S12 recombinant plasmid was measured according to the same method as described above except that […] of a LB broth containing 20 μg/ml of kanamycin and 2% lactose was employed for a main cultivation and the E. coli transformant was cultured at 25° C., 200 rpm for 72 hr with vigorous shaking. […]

B1: Wild-type: Pseudomonas sp. SE83 derived wild-type CPC acylase (AcyII), α-subunit SEQ ID NO: 4 and β-subunit SEQ ID NO: 5, from pBCPC (protein)
alpha: TMAAKTDREALQAALPPLSGSLSIPGLSAPVRVQRDGWGIPHIKASGEADAYRALGFVHAQDRLFQMELTRRKALGRAAEWLGAEAAEADILVRRLGMEKVCRRDFEALGAEAKDMLRAYVAGVNAFLASGAPLPIEYGLLGAEPEPWEPWHSIAVMRRLGLLMGSVWFKLWRMLALPVVGAANALKLRYDDGGQDLLCIPPGVEAERLEADLAALRPAVDALLKAMGG
beta: SNNWAVAPGRTATGRPILAGDPHRVFEIPGMYAQHHLACDRFDMIGLTVPGVPGFPHFAHNGKVAYCVTHAFMDIHDLYLEQFAEDGRTARFGNEFEPVAWRRDRIAVRGGADREFDIVETRHGPVIAGDPLEGAALTLRSVQFAETDLSFDCLTRMPGASTVAQLYDATRGWGLIDHNLVAGDVAGSIGHLVRARVPSRPRENGWLPVPGWSGEHEWRGWIPHEAMPRVIDPPGGLIVTANNRVVADDHPDYLCTDCHPPYRAERIMERLVASPAFAVDDAAAIHADTLSPHVGLLRARLEALGIQGSLPAEELRQTLIAWDGRMDAGSQAASAYNAFRRALTRLVTARSGLEQAIAHPFAAVPPGVSPQGQVWWAVPTLLRNDDAGMLKGWSWDEALSEALSVATQNLTGRGWGEEHRPRFTHPLSAQFPAWAALLNPVSRPIGGDGDTVLANGLVPSAGPEATYGALSRYVFDVGNWDNSRWVVFHGASGHPASPHYADQNAPWSDCAMVPMLYSWDRIAAEAVTSQELVPA
modifications: Pseudomonas sp. SE83
In the case of B1, the “acylase activity to CPC as compared with GL-7-ACA” value [1] is listed as “about 5%” and the “specific activity to GL-7-ACA” value [2] is listed as “about 23.1 unit/mg protein”.

B2: S12: sixfold CPC acylase mutant, α-subunit SEQ ID NO: 7 and β-subunit SEQ ID NO: 8 (protein)
alpha: TMAAKTDREALQAALPPLSGSLSIPGLSAPVRVQRDGWGIPHIKASGEADAYRALGFVHAQDRLFQMELTRRKALGRAAEWLGAEAAEADILVRRLGMEKVCRRDFEALGAEAKDMLRAYAAGVNAFLASGAPLPIEYSLLGAEPEPWEPWHSIAVMRRLGLLMGSVWFKLWRMLALPVVGAANALKLRYDDGGQDLLCIPPGVEAERLEADLAALRPAVDALLKAMGG
beta: SNNWAVAPGRTATGRPILAGDPHRVFEIPGMYAQHHLACDRFDMIGLTVPGVPGFPHNAHNGKVAYCVTHAFMDTHDLYLEQFAEDGRTARFGNEFEPVAWRRDRIAVRGGADREFDIVETRHGPVIAGDPLEGAALTLRSVQFAETDLSFDCLTRMPGASTVAQLYDATRGWGLVDHNLVAGDVAGSIGHLVRARVPSRPRENGWLPVPGWSGEHEWRGWIPHEAMPRVIDPPGGLIVTANNRVVADDHPDYLCTDCHPPYRAERIMERLVASPAFAVDDAAAIHADTLSPHVGLLRARLEALGIQGSLPAEELRQTLIAWDGRMDAGSQAASAYNAFRRALTRLVTARSGLEQAIAHPFAAVPPGVSPQGQVWWAVPTLLRNDDAGMLKGWSWDEALSEALSVATQNLTGRGWGEEHRPRFTHPLSAQFPAWAALLNPVSRPIGGDGDTVLANGLVPSAGPEATYGALCRYVFDVGNWDNSRWVVFHGASGHPASPHYADQNAPWSDCAMVPMLYSWDRIAAEAVTSQELVPA
modifications: alpha-subunit of mutatnt CPC acylase S12 protein; beta-subunit of mutatnt CPC acylase S12 protein
In the case of B2, the “productivity of CPC acylase mutant” value [3] is reported as 1,207 unit/l.
